Results from the nanobody polyreactivity screen of Harvey et al. (2022).

Assay: yeast display, Sf9 membrane polyspecificity reagent, FACS + sequencing; frameworks hold sequencing errors
How it was run: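 Genes from sorted yeast were amplified by colony PCR, read by MiSeq 2 × 250 sequencing and filtered on CDR length. These cells carried a synthetic nanobody library in Saccharomyces cerevisiae BJ5465 and were sorted by FACS into low and high (top ~1%) gates on anti-HA and streptavidin fluorescence. Polyreactivity is labelled according to the gate of origin.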

Sequence | polyreactivity (PSR sort gate)
QVQLVESGRGLVRAGGSLRLSCAASGRTFGVYAMGWYRQAPGKERELVASIRYSGVSTYYADSVKGRFTISRDNAKNTVYLQMNSLKPEDTAVYYCAARYRSRRVDYGYDYWGQGTQVTVSS | high polyreactivity
QVQLVESGTGLVQAGGSLRLSCADSGITFVFYSMGSYRQAPGKESELVATISYRGTSTYYADSVKGLFTISRDNAKNSVSLQMNSLKPEDTAVYYCAADTFIYYKTGYGYWGQGTQVTVSS | low polyreactivity
QVQLVESGVCLVQAGGSLRLSCAASGFTYYFYTMGWYRQAPGKERELVARITARGGSTYYADSVKGRFTISRDNAKNTVYLQMNSLKPEDTAVYYCAAVTYFGWYPYRMEYWGQGTQVTVSS | high polyreactivity
QVQLVESGVGIVQAGGSLRLSCAASGFTFDNYVMGWYRQAPGKERELVAAISTGSRTYYADSVKGRFTISRDNAKNTVYLQMNSLKPEDTAVYYCAASYVRRSWYSNDYWGQGTQVTVSS | high polyreactivity
QVQLVESGVGLDQAGGSLRLSCAASGSIFRRYAMGWYRQAHGKERELVAAISSNGGSTYYADSVKGRFTISRDNAKNTVYLQMNSLKPEDTAVYYCTAPPLYRDEYWGQGTQVTVAS | high polyreactivity
QVQLVESGVGLDQAGGSLRLSCAASGSIIWYYAMGWYRQAPGKERELVAAITVSGGSTYYADSVKGRFTISRDNAKNTVYLEMNTLKPEDTAVYYCAALYISLSGDEYDYWGQGTQVTVSS | low polyreactivity
QVQLVESGVGLLQAGGSLSLSCSASGSTLYYAMGWYRQAPGKERELVASITFSTGSTYYADSVKGRFTISRDNAKNTVYLQMNSLKPEDTAVYYCATGVDTYYLTVEHDSWGQGTQVTVSS | low polyreactivity
QVQLVESGVGLVKAGGSLRLSCAASGITFGFYAMGWYRQAPGKDRELVASISSRGGSTNYADSVKGRFTISRDNAKNTVYLQMNSLKPEDTAVYYCAVAWLVRGGGGRRTFYSWGQGTQVTVSS | high polyreactivity
QVQLVESGVGLVQAAGSLRLSCAASGRIFKYYAMGWYRQAPGKERELVATISRGSRTNYADSVKGRFTISRDNAKNTVYLQMNSLKPEDTAVYYCAAQRLSASRPYGYWGQGTQVTVSS | high polyreactivity
QVQLVESGVGLVQAGGSHRLSSGASGSIFSSYAMGWYRQEPVKERELVADISQSGGDTYYADSVQGRFTISRDNANNTVYLQRNSLKPEDNAVYYCAASVWYYPMDYWGKGTQVTVSS | low polyreactivity
QVQLVESGVGLVQAGGSLLLSCAASGRIFRVYAMGWYRQAPGKERELVAAISWSGGRTYYADSVKGRFTISRDNAKNTVYLQMNSLKPEDTAVYYCAAERCGPTYYSGGDYDYWGQGTQVTVSS | high polyreactivity
QVQLVESGVGLVQAGGSLRISCAASGRIYRSNAMGWYRQAPGKERELLAAISSNGGSTYYADSVKGRFTISRDNAKNTVYLQMNSLKPEDTAVYYCAARVYYPVRYGYWGQGTQVSVSS | high polyreactivity
QVQLVESGVGLVQAGGSLRLICAASGRTFAYYAMGWYRQAPGKERELVAAISSGGRTNYADSVKGRFTISRDNAKNTVYLQMNSLKPEDTAVYYCARKASYQIYNGQYGGFGYGYWGQGTQVTVSS | high polyreactivity
QVQLVESGVGLVQAGGSLRLICDASGRIYSYYAIGWYRQAPGKETELVASISRSGGSTYYADSVKGRFTISRDNAKNTVYLQMNSLKPEETAVYYCAAYKYVRSYPYDYWGQGTQVTVSS | low polyreactivity
QVQLVESGVGLVQAGGSLRLRCAASGSIFRRYAMGWYRQAPGKERELVARITSSSGTTTYADSVKGRFTISRYNSKNNVYLQMNSLKPEDTAVYYCAAAWWHAYYGKNYYWGQGTQVTVSS | high polyreactivity
QVQLVESGVGLVQAGGSLRLSCAASGFIFPYYTMGWYRQAPGKERELVAAISASSGRTYYADSVKGRFTISSDNAKNTVYLQMNSLKPEDTAVYYCAAKTYEPRKYEYWGQGTQVTVSS | high polyreactivity
QVQLVESGVGLVQAGGSLRLSCAASGFLIRYYAMGWYRQAPGKERELVASIDWSGGNTYYADSVKGRFTSSRDKAKITVYFQMNSLKPEDTAVYSCNRRGMDWGQGTQVNVSS | low polyreactivity
QVQLVESGVGLVQAGGSLRLSCAASGFTFARYAMGRYRQAPGKEREFVAAISLSTTSTYYADSVKGRFTISRDYANNNVFLQMNSLKPEDTAVYYCATDIVGPHFDYWGQGTQVSVSS | low polyreactivity
QVQLVESGVGLVQAGGSLRLSCAASGFTFYPYAMGWYRQAPGKERELVASITNGGSTNYADSVKGRFTISRDNAKNTVYLQMNSLKPEDTAVYYCTAAYGFYASRYWYASYDYWGQGTQVTVSS | low polyreactivity
QVQLVESGVGLVQAGGSLRLSCAASGIITFYNAMGWYRQAPGKERELVAAITWSGGSTYYADSVKGRFTISRDNAKNTVYVQLNSLKPEDTAVYYCAADVVSVVYLPFVNGGDYWGLGTQVTVSS | low polyreactivity
QVQLVESGVGLVQAGGSLRLSCAASGITFGRNTMGWYRQAPGKERELVAAIDSGGNTYADSVKGRFTISRDNAKNTVYLQMNSLRSEDTAVYYCNARETHQSRYGYWGQGTQVTVSS | low polyreactivity

Sequence | polyreactivity (PSR sort gate)
QVQLVESGVGLVQAGGSLRLSCAASGITFIPYAMGWYRQAPGKERELVASISDGGGTNYADSVKGLFTISRDNAKNTVYLQKNSLNPEDTAVYYCATYASTYSYYGGDYWGQGTPVTVSS | low polyreactivity
QVQLVESGVGLVQAGGSLRLSCAASGITFSSYAMGWYRQAPGKERELVAAITRSGSTTYADSVKGRFTISRDNAKNTVYLQMNSLKPEDTAVYYCAVDYYYLTGGVDYWGQGTQVTVSS | low polyreactivity
QVQLVESGVGLVQAGGSLRLSCAASGITFTSYAMGWYRQAPVKERELVAAISSSGVRTYYADSVKGRFTISRDNSKNTVYLQMNSLKPEDTAVYYCATRRRVLYGYDYWGQGTQVTVSS | high polyreactivity
QVQLVESGVGLVQAGGSLRLSCAASGITFVDYGMGWYRQAPGKERELVSAISRSGGSTYYADSVKGRFTISRDNAKNTVYLQMNSLKPEDTAVYYCATVLSRVRNSDKYWGQVTQVTVSS | high polyreactivity
QVQLVESGVGLVQAGGSLRLSCAASGITFVGYAMGWSRQAPGKERELVASITRGGGSTYYADSVKGRFTISRDNAKNTVYLQMNSLKPEDTAVYYCAARSHSTYYYWGQGTQVTVSS | high polyreactivity
QVQLVESGVGLVQAGGSLRLSCAASGITISYYSKGWSRQEPGKEREFVAAISWSVGSTYYADSVKGRFTISRDNAKNTVYLQMNSLKPEDTAVYYCAAEDGYWPTYYYWGQGTQVTVSW | high polyreactivity
QVQLVESGVGLVQAGGSLRLSCAASGLIFASNSMGSYRQAPGKEREFVAAITSSGGSTYYADSVKGRFPISRDNAKNTVYLQMNSLKPEDTAVYYCAADLYGAWWYTYGRYYYWGQGTQVTVSS | low polyreactivity
QVQLVESGVGLVQAGGSLRLSCAASGLILRKYAKGWYSQAPGKEREFVAAITQTGSRTYYADSVKGRFTISRDNAKNTVYLQMNSLKPEDTAVYYCNAVNYRSSRDSGYWGQGTQVTVSS | high polyreactivity
QVQLVESGVGLVQAGGSLRLSCAASGLTFGWYAMGWYRQAPGKERELVASITRRSGSTYYADSVKGRFTISRDNAKNTVYLQMNSLKPEDTAVYYCAARSRGTTRFDFWGQGTQVTVSW | high polyreactivity
QVQLVESGVGLVQAGGSLRLSCAASGLTFLWYAMGWYRQAPGKERELVAAITSGGRTKYADSVKGRFTISRDNAKNTVYLQMNSLKPEDTAVYYCAAYTQWWGYDYWGQGTQVSVSS | high polyreactivity
QVQLVESGVGLVQAGGSLRLSCAASGLTFPWYTMGWNRQAPGKERELVAAINSRGGSTYYADSVKGRFTISRDNAKNTVYLQMNRLKPVDTAVYYCATRSFGRMDYWGQGTQVTVSS | high polyreactivity
QVQLVESGVGLVQAGGSLRLSCAASGRIFATNAMGWYRQAPGKERELVATITRSAGRTYYADSVKGRFTISRDNAKNTVYLQMNSLKPEDTAVYYCAASYWDTEPGYREYDYWGQGTQVTVSS | low polyreactivity
QVQLVESGVGLVQAGGSLRLSCAASGRIFERYAMGWYRQAPGKERELVAAIRSGGSTKYADSVKGRFTISRGNAKNTVYLQMNSLKPEDTAVYYCAAVIHYGDGYWGQGTQVTVSS | low polyreactivity
QVQLVESGVGLVQAGGSLRLSCAASGRIFFNNAMGWYIQAPGKERELVAGITSGSSTNYADSVKGRFTISRDNAKNTVYLQMNSLKPEDTAVYYCNAGDFERDVVVFIQHGGYYWGQGTQVTVSS | low polyreactivity
QVQLVESGVGLVQAGGSLRLSCAASGRIFGFYAMGWYRQAPGKESELVAAITVSGSSTRYADSVKGRFTISRDIAKNTFYLQMNSLKPEDTGVYYCAAFNRCSGGFDYWGQGTQVTVSS | high polyreactivity
QVQLVESGVGLVQAGGSLRLSCAASGRIFIDYAMGWYRQAPGKERELVATISESGGSTYYADSVKGRFTISRDNAKNTVYLQMNSLKPEDTAVYYCAVDDRYGTVYFYTKFDYWGQGTQVTVSS | low polyreactivity
QVQLVESGVGLVQAGGSLRLSCAASGRIFRPYAMGWYRQAPGKERELVAAITQSGGITSYADSVKGRFTISRDNAKNTVYLQMNSLKPEDTAVYYCATTSRYTRSHYDWYDYWGQGTQVTVSS | low polyreactivity
QVQLVESGVGLVQAGGSLRLSCAASGRIFRWYAMGWYRQAPGKERELVASITWNGGSTYYADSVKGRFTISRDNAKNTVYLQMNSLKPEDNAVYYCAVPFYRGPEMGYWGQGTQVTVSS | high polyreactivity
QVQLVESGVGLVQAGGSLRLSCAASGRIFYRNAMGWYRQAPGKERELVAAISYSGGRTYYADSVKGRFTISRDNAKNTVYLQMNSLKPEDTAVYYCAARYAWGYVDPGDYWGQGTQVTVSS | high polyreactivity
QVQLVESGVGLVQAGGSLRLSCAASGRTFAYYAMGWNRQAPWKERELVARITSDGSTYYADSVKGRFTISRDNAKNTVYLQMNSLIPEDTAVYYCNARWRYKWKYDHWGQGTQVTVSS | low polyreactivity
